The domain aggregation screens of Martell et al. (2025)

Assay: soluble fraction after stress (log2 fold change); higher = more stays soluble; pooled small domains, quantitative proteomics
Settings: stress: 75 degC
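Further: 20 min heating vs room temperature control held 20 min.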

Sequence	soluble fraction (log2)
HMKRITKKQLSQQLEQFFSSQPGKKLTLKDIFRALHLDTHPLKMLAMDIMEEMAWDDFITKKGENAYQLNT	-0.916
HMKRKAIDQSWQPDKEAIEILSKAGVNEEFIKEEIPEFILYWSEKGEESDTWNSKFIAQVRRQWAKTQH	-0.121
HMKRQATLQIGSKRFGMDDLYFKFTVPFEDSEKLGTATIEAYNLSPATRNSIKKGMPIILNAGYEGDI	-0.425
HMKRTMVEAAMVAKLFNLTVRRIQQLTQDGVLTTELVDKKRRYDLLLTVQKYIAYLQEKVAK	-3.41
HMKRVVFFNGISWYHRTKELLDDMTTKYGKKGGFATPEEAEKSYWEYEERYKDRQRELQVAYLKN	-1.79
HMKSDEGEIKKIVEEIISKNASVVEDYKKGKEVALQFLVGQGMKATKGSANPELLKKIILENI	1.01
HMKSDVVFDITDGTVKAMLKFNRSDVTILNNDGKNYYLFTANGEFTFKYQDGSGEYYEKTVYVDWLEDE	-2.25
HMKSFIWKQYTVQITKKNVKNTNVRIKRDNPHVILMSIPYSATYKAGLLALETPHIRHWLDNYERKLKQ	-1.45
HMKSIEVPNLINMTLRKAKIELIDNEFNLDTVIYEYNPNIREGRVSLQIPESGTILKSGSNISIHISKGIP	-1.6
HMKSIPKIKWNSTLENIKNFEYQDNFFESKEMYDLLVSFYKYGFVIIKNIPTNNNFIVKFANSIGS	0.0519
HMKSISMANGNVQLRINGVLASSLEVAALSPEDIKRVEYHDNPGLRYGEGIDIVLDYITIKRT	-0.754
HMKSISMSKLRHLLQLYVQGRSKKLISEQTGIARNTLKKYIKEFSEAGLSLEALLALSDKELEDLFVK	-2.86
HMKSLPQKLLAYLESQGLTRDEAGEFVKQGLKITSNDVDQIQLLLANTEVIDIKLQEFIAQK	0.0281
HMKSLVDLEISIVKKDMNYFVLPKINGEPLLMERISASEYKDFQLGKLSKEDIFQKHYPDYSEENIKNGRG	-0.671
HMKSSISKNWNPSKDAIEILTRAGIDQEFLENLIPEFVIYWIERSDVLISYNSKFIEHARLKWAQHTAEIQ	0.192
HMKSTPMYATAIVNIRSKAGTDSEILGKLNPSEEISVISSENGWSKVSYNGKEAYISSNYLSNAKP	-0.0974
HMKSVFQPIYEDLLSRIQDGRLLPGMPLPSENALAVQYGTSRPTIRRAIGLLVEKSLVIRQPGIGSIVAS	-1.32
HMKTALQENVRAYRLERKWTQQALAEALEVSVGAVSKWESGVSRPELETLMRLAELFGVSTDALLGF	-2.33
HMKTAWDELNEVIEAYRGQESALIEVLHKAQEIMGYLPRDVQEAIAEGLHVPLNKVYGVVSFYHHFSV	0.449
HMKTERTVRVQDQHLHYTLEEKPIKNVNLRIRPDGSVYVSAPFGTSRTLIDDFVASKSKQILAIQQAQSAM	-0.277
HMKTGIGIVEANGGLRLRSQASTSSDVLSTAHNGDNVVVIRQVGNWYLVNYNLKIGYMHSDYITFKE	-5.04
HMKTGNIIAVSLVWKGKYYMIRMFFPSAARPSRADVQTEIEKVYPGSKLSSFSVSDYEPGQPLLQV	-3.05
HMKTGTTGLIGEIGVVKKALTPEGKVFVHGELWRAVSKTASPEGTLVQVIKINNLVLEVEKV	-2.98
HMKTILEKDQRLAKYISYLIKRKRLSPEQVIEHLKTDDHGYEKYPKSINTIYAAIDKGLIPSVTRQDM	-0.509
HMKTKMTPELTTVIEAQIQKEWSPEQISGWLKKTHPVSVSHQRIYQHIQADRQQGGTLHQHLRQAK	0.00699
HMKTKTFSPGEIVKIQTRDKSWQGTILESHDPEIILLKLTTGYNIGIRENEIINAKVIEKSKKDVKDAE	0.258

Sequence	soluble fraction (log2)
HMKTKTIMSTGAREDLVKMINEYYYSKNYIITEDNRIYNTKTEKFMDDLSVKFYRGRWKVIRN	-0.852
HMKTLDATQRLKLNGEGIIVFNFGKYVDQPVVEIFKKERGYFAWMMSKDFSQQVKNIITKIHNEEILGK	-3.01
HMKTLKHYFASIAHEFGREEAELMLLSVFKTPFEQRLMLFMKDPALTEAQVQQLDNLVRQRKQGVPLPYIL	-2.68
HMKTLPADPTVKNFSYTVVDGEIYYRENSIMTQIELSDNAKGRVAGMVELRQIVNELIDQQLND	-0.849
HMKTMEQSYIGRKIILDENVEDSALIKFEGIYWTFKSVSGPLKKGTEVEIIGIEGNKILIKNK	-0.988
HMKTPIEFGSVYNDPVRYVIGMSIKSAESINQAIYDMMKIFGDENNMNKFDSLPDEQAVLDMVNSF	0.0725
HMKTRIQDLRKELGVTQSELADAVDVTRQTIISLEGGRYKASLVLAHKLAQFFHVTIEELFIFD	-2.32
HMKTRNISGNHEAVWQAVRSRTQAGHPTTRAVIMDDLKAQGLNTQKFSRWLKKLVDDGSVYMDGDTIIMGK	-0.306
HMKTRTVVLKSAGGNKIAVIKIIKEITGLGLVEAKAVADNGGNIKENIPAEEAEAIKTQLTEAGAEVEL	-0.664
HMKTRYPNVYQDEKGKFFYQIFIGTDTNGRKKLKKGRRDALGHPFSSAYQASKEAKRVQALYANVS	-2.02
HMKTSTGSAMYLTLDLAEKYAGQAFTLVHKKADGTFEYLYATADVDGKVKFGPVYELSPFMLVKGQL	-1.66
HMKTSVGSKMMVMANNLSIRKSANLLSEKLADLSKGDMVEYISSTNGWNKVRYNGYVGYVSSYYLKDTGEV	-2.21
HMKTTKDSVFEYIQKELMTNEEYKQGINTNVIAQHFGLQRSNISTILNELVKEDRLEKTNTRPVLYFLPQ	-0.208
HMKTTKRERARAKLIQLLENEDRPAKEIYAGLGDIGVGSRTVEKVKKELQVTTYRSGGSWYWSLPKP	-0.525
HMKTVKPSQIPYSEFLKLVETDKINDVSMVGRNIIGHLDDGSKFKTYTPPNDPTLIEKLSSHNIVINAAPE	0.0923
HMKTVLDSLLRILDSKELDIVVLRHIVGLTLTEIAKEKDMKKGTVFWMYNRAVKKLRLESERMGL	-2.13
HMKTVPNVEGEKDGTAQSAIESAGLKVGKVTYQYDDNTSKGLVISQSVKGGEKVKPNTAIDLVVSNGPK	-0.117
HMKTYSEAQLKIALESLIENGKKQGYLTFQEINEILPDGIINTQDLKVIISILKETGIVVAKEKPEINIDV	0.0761
HMKVEFTPAYLKKFKANKNAWKFYEAQTNTYKKQSAWYVISAKQEETRLRRLDLLIYDSENGIHIKPLRR	-2.74
HMKVFTEDEMLEKIKEYLSTNSYINRRVMETQFGLRQNIALKWLKHFTEIGVLRKEGERNSPIYFLNN	-0.356
HMKVKIFNGMKLVTNSTGLTVDGKPAALDESNADAKTYSQGLYVFIVYQSGKIAVMQDGKFLGYA	-3.34
HMKVLNVLESEIVRLFKQGQQKDNIRDNIYKTHGQHYNNKKSFNVVFGRKWNSLLEQGFLES	-1.23
HMKVRDTQYIIEAAISKNVIRKSKNIYYYGTDIIGRSLEDAIASLNDKKNQDIKMTILQEIES	-2.14
HMKVSKNKIVKGMGFHHVALKAVDFDASFKFYTEGLGMKFYTSWGEGNGKIAMLDLGDGGILELFA	0.0409
HMKVTGITDDILQRLKQQKGYLMLSDKSSPDEIYAAFGVSKKVFKQAIGTLFKQRQIIIEEQGIRLAN	-1.3
HMKVTQDIIFKRNGEEIKSKVLEITPDLIIYIDYSRADNIAREINISEVNMIIYKNGTSEIFSRPEE	-1.69

Sequence	soluble fraction (log2)
HMKVTTGIDGLIGEEGVALSDFSGKGKIMVHGEIWNAEFSGEVKKGEVLLVEKANGMTLITRKKN	≥ 1.04
HMKYKWLAGQLRRELLENGGKKGYKLPTELELARRYQLSRQTVRRALQLLEEEGLILRRQGSGAYATGKPP	-0.729
HMKYLREEDYLPIGSIIRLDDRNFRVDHVNFMFKSVSLQDMDLTNSGQPIFRSESLPHIRELYEQQQNELV	-0.877
HMKYYIYQGLGDSGELTKIAEVTDVKTYTATGLEANTKYRFAVSAYNGLRESSKSNIITVTT	0.0116
HMLADIGGRIADLRREVGLTQGELAEKADISVVHLSNIELGKKTPGLSTLIRIAEALDVATDWILQA	-1.38
HMLAFDKDDSGAVAEIILVLGRYWMDFSHKKYPAAEGVALRHKGLSHIFTVLRPYLSTPASELIGERLRR	-0.0618
HMLAGVDTLADRELEVFQMLGRGKSTKEIAQVLNLGESTVETYRARIKEKLQLRSAAELYLRAGQWVRDHG	-1.09
HMLAIKKGGIFAILGPNGSGKSTFSKVLAGHPAYTVVDGDIFFKGLSILDLEPEERSHLGIFLAFQ	-0.286
HMLAKRYLVYGSGSLNSAYPDTKNIAYGIDSGKGFFLVGILTENEASKLKLKGYYVIEDFPLDFH	-1.45
HMLAPLAEMRGDTLDRLEKAVLELFSSRDFHEVSLQDVARRANVSLQTIYKYFGSKEALVYTMLDTLLGR	-0.416
HMLAQVSDEGPIRAMVEAVMARSTQQLEDYKNGKVKLRQYFFGEVMKAAKGKANPTVINKLLDEMLPETL	-0.314
HMLAQYPGQVFSKEQIYNQVWKEPYYGVEDNVMSLIRRIRKKIEPDPSRPIYILTVWGIGYKFNN	0.0812
HMLARFSGIALNTWTQADVERTFGPPMLVERVARFDGDIWTYRFMDDYEPRMAHIHIDRAGTVRQLVF	-2.86
HMLAVEKIEFVGNERIAAADLESALSALYDRPMTTISDDEIAKLLSGFSLIETFTSQAEPPHTLRVNIRE	0.083
HMLDEKFLSELMLALLRNHRRGLRAEVLLHKVRSNMELDGYKSLLVGVGRMEMWELAREIIDFVKAEG	-4.4
HMLDGFEVGMTVMRKPGTETGFTGWPPFADKDEFPVIERIDTSDSTLLLRFNDTSWWINASLVEPSDV	-2.19
HMLDIPEVGQAVQVRGRLGTVFSVAPYDGREGRLHLVTVDYLDDARPPENDEILWEIESGARILG	-0.698
HMLDLNEVEFYAIENQLKENLKIDSKRFYELVPLIKGYQEDDIIQVLRWLIDNNRIIRHKDESLTWHS	-1.68
HMLDLSEEEQKIVSILEKQGNLQINSLVVEADIPVHKINAILFELEMKGVVRVLALSLIHISEP	0.149
HMLDPVLQREKDESFTDYHIRLFKNKDTYHIDTKTIATLLNKDQGTNYDESKWRKDFKQYERWNDYIMSKN	0.116
HMLDPYNVLGVPRDAGMDEIKKAYRKLSRTYHPDANIDNPNKAQAEEKFKQIQEAYQQIVKERTE	-0.0272
HMLDQAVPVFETPKYAVSYIQNRLVEMKAASPEEAASRFYESISESERRGLFEALLIKEAEES	0.0105
HMLDQGTQSRYQIMDGVRALITGDWSSHGAGLVRELSQEVARTSGLTATSERTFFVPFSALS	0.00593
HMLDSDARRRGLIEYLSLNGYATMRQLAGEFDVSINTIQRDITYLARYYPLETAYGRYGGGVYFEQNWQ	-1.44
HMLDSGNPILPYKLSLLANVDIRTVRNAISAGELVAFKSEFDGEVYVENGSARRWLHGRRGFKPTLK	-2.56
